Measurements taken from the supplement of paper PMC10065799, “High-throughput profiling of sequence recognition by tyrosine kinases and SH2 domains using bacterial peptide display” (eLife, 2023).

Tests used:
[1] = biological target: Fyn (UniProt P06241); assay: phosphorylation enrichment, bacterial display (enrichment ratio); higher = better substrate or ligand; peptides without Tyr show the background
[2] = biological target: Hck (UniProt P08631); assay: as above
[3] = system: Fer (mouse); assay: as above
[4] = system: AncSZ; assay: as above
[5] = system: c-Abl (mouse); assay: as above
[6] = biological target: FGFR1 (UniProt P11362); assay: as above
[7] = biological target: FGFR3 (UniProt P22607); assay: as above
[8] = biological target: EPHB1 (UniProt P54762); assay: as above
[9] = biological target: Fes (UniProt P07332); assay: as above
[10] = biological target: MERTK (UniProt Q12866); assay: as above
[11] = biological target: EPHB2 (UniProt P29323); assay: as above
[12] = system: c-Src; assay: as above
[13] = biological target: Jak2 (UniProt O60674); assay: as above
[14] = biological target: c-Src SH2; assay: SH2 binding enrichment of the phosphorylated peptide, bacterial display (enrichment ratio); higher = better substrate or ligand; peptides without Tyr show the background
[15] = biological target: SHP2-C SH2; assay: as above
[16] = biological target: Grb2 SH2 (UniProt P62993); assay: as above
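For SH2 binding enrichment of the phosphorylated peptide, bacterial display in this document: peptide library displayed on the E. coli surface as eCPX fusions, selected cells deep-sequenced, score is each peptide's frequency after selection divided by its frequency in the input.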
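For phosphorylation enrichment, bacterial display in this document: 11-residue human phosphosite peptides and single-mutation variants displayed on the E. coli surface, counted by deep sequencing, each peptide's frequency after selection divided by its frequency in the unselected input library; frequency after pTyr selection over input frequency; kinase dosed for 20-30% of maximal phosphorylation in three min.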

Sequence of EPHB2 (P29323 whole entry, looked up): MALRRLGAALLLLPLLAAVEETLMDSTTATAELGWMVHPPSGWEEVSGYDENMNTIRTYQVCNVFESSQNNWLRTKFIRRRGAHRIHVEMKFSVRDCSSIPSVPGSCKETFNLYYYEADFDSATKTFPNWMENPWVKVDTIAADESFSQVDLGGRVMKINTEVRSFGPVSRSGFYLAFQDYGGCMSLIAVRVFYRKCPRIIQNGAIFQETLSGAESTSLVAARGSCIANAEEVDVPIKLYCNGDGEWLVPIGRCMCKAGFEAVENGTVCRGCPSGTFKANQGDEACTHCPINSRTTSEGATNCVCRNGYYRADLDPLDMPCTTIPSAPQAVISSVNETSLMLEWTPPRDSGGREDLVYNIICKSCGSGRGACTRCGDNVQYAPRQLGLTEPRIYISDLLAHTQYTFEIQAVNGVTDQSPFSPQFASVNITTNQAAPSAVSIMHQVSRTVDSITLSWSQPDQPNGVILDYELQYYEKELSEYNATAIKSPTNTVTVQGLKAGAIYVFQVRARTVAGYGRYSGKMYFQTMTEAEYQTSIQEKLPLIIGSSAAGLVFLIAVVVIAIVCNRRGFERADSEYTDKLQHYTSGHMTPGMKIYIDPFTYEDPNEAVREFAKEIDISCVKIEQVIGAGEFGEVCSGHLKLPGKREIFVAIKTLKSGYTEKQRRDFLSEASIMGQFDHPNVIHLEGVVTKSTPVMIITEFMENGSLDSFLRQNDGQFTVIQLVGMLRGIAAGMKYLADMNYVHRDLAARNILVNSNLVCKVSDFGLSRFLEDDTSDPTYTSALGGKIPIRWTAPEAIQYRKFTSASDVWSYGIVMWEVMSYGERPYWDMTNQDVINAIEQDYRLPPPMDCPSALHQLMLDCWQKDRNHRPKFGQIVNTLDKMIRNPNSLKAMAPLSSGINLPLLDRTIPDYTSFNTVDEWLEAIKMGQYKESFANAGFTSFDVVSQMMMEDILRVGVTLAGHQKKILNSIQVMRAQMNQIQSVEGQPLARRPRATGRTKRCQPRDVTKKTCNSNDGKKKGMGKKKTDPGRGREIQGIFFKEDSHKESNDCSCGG
Sequence of FGFR1 (P11362 whole entry, looked up): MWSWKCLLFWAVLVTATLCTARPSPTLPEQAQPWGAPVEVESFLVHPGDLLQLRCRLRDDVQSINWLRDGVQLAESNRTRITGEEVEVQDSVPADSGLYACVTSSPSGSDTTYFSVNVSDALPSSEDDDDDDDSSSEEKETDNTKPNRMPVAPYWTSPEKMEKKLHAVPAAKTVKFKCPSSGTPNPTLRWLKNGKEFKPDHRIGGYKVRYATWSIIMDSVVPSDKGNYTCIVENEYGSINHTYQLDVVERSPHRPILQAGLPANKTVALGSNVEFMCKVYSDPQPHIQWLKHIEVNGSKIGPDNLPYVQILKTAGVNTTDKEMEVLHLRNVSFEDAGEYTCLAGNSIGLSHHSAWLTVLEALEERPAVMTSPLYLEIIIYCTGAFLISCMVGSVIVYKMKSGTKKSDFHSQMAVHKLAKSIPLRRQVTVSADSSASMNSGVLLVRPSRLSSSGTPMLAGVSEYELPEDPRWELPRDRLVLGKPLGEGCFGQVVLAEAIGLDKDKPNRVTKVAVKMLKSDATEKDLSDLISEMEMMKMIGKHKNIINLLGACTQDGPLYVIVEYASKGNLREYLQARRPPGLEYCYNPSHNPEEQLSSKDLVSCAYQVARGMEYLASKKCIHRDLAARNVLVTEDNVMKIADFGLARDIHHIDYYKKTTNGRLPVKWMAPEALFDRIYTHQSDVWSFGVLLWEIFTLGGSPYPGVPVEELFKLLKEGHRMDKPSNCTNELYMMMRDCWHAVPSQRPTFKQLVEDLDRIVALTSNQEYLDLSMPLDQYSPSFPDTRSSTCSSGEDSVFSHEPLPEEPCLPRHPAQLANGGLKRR
Sequence of EPHB1 (P54762 whole entry, looked up): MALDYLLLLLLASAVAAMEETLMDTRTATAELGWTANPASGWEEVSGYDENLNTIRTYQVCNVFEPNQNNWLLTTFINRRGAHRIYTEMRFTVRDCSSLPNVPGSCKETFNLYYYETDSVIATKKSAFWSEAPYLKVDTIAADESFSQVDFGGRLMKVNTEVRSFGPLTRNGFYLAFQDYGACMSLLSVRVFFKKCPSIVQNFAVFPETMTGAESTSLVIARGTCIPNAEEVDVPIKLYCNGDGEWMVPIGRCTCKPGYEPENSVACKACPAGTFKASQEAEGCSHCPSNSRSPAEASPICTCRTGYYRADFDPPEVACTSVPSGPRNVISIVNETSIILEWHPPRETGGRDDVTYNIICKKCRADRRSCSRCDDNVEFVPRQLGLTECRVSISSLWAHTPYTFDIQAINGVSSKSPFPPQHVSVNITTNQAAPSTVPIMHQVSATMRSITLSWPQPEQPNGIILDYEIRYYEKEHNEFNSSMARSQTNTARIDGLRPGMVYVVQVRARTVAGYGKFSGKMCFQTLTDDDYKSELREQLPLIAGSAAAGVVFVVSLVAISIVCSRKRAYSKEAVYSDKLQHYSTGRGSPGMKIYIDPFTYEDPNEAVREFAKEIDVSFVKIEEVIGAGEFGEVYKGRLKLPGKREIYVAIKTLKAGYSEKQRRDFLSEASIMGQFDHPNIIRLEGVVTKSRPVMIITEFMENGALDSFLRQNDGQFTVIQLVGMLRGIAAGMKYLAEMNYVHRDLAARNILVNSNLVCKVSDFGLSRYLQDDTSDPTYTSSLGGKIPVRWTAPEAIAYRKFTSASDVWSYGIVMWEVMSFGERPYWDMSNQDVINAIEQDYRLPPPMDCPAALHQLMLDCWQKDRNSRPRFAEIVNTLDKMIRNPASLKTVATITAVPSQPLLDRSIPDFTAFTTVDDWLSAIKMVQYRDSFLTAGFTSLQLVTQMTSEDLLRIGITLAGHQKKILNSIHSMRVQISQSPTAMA
Sequence of Fyn (P06241 whole entry, looked up): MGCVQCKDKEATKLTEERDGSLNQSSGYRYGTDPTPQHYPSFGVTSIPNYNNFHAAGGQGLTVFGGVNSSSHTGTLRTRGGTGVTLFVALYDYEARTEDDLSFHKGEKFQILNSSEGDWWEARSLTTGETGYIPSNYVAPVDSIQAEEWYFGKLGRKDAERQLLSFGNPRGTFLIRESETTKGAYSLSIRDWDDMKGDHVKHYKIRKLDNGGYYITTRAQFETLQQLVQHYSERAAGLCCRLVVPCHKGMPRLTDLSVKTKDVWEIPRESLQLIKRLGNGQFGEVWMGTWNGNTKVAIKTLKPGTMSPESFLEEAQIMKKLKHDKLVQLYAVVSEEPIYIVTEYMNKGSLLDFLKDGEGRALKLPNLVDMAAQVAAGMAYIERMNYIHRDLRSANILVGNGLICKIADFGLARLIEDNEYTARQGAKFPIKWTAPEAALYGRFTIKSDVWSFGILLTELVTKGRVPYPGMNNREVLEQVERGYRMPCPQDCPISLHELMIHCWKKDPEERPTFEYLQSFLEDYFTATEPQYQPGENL
Sequence of Hck (P08631 whole entry, looked up): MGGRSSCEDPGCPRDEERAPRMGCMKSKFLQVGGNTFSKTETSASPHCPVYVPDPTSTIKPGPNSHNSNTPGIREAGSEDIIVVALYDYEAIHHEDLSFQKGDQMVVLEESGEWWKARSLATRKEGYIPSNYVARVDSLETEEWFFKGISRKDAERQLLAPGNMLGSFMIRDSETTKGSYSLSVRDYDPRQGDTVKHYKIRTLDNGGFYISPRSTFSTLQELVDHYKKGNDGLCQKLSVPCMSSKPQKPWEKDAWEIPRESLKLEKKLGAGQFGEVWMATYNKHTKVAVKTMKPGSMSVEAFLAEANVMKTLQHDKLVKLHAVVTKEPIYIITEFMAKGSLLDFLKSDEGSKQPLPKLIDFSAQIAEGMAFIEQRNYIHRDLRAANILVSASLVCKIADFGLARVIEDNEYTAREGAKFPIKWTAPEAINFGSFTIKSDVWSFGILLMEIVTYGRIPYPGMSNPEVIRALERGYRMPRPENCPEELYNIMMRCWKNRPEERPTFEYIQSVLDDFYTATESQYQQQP
Sequence of FGFR3 (P22607 whole entry, looked up): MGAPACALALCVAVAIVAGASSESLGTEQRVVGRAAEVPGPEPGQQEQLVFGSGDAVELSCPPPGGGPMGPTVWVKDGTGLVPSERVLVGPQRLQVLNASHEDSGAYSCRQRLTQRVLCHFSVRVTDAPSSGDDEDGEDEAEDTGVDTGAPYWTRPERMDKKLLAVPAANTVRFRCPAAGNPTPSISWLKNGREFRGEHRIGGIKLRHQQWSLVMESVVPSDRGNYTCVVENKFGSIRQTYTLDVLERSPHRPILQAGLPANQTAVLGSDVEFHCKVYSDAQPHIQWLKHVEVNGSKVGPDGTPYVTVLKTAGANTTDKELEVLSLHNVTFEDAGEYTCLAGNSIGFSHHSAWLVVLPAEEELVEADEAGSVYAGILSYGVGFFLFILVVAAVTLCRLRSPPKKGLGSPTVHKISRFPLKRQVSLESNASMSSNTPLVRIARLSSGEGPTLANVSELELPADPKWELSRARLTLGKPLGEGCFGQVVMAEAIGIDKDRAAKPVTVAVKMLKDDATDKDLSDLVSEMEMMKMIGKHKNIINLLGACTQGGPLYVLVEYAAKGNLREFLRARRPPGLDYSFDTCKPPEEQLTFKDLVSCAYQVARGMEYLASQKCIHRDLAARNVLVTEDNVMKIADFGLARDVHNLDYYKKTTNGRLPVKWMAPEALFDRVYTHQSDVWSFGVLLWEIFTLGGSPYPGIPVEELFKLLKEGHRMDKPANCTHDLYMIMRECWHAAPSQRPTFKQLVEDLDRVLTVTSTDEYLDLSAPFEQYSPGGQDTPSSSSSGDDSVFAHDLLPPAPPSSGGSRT

Sequence	SH2 binding enrichment [14]	SH2 binding enrichment [15]	SH2 binding enrichment [16]	phosphorylation enrichment [1]	phosphorylation enrichment [2]	phosphorylation enrichment [3]	phosphorylation enrichment [4]	phosphorylation enrichment [5]	phosphorylation enrichment [6]	phosphorylation enrichment [7]	phosphorylation enrichment [8]	phosphorylation enrichment [9]	phosphorylation enrichment [10]	phosphorylation enrichment [11]	phosphorylation enrichment [12]	phosphorylation enrichment [13]
RFLRGYRQDAF [HLA-A_Y137_YF]	0.559	0.888	1	0.489	0.802	0.658	0.644	0.708	0.569	0.677	0.742	1.01	0.799	0.47	0.413	0.498
RFVTRHIFNRE [HLA-DQB1_Y62_Y62H_YF]	0.293	0.721	0.443	0.651	0.431	0.43	0.843	0.719	0.584	0.658	0.482	1.12	0.583	0.314	0.62	0.766
RGNMYYENSYA [EGFR_Y113]	5.02	0.978	10.5	0.832	0.845	2.84	0.957	1.65	1.29	1.02	1.04	1.2	2.85	0.619	1.19	2.08
RGRSTYYWPSP [GAGE12J_Y9_R13S]	0.373	0.472	0.647	0.938	0.949	0.699	2.12	0.647	1.49	1.01	0.994	0.885	6.32	0.871	1.23	0.656
RHLQEYQDPLN [GFAP_Y349_L352P]	0.645	0.842	0.949	0.579	0.517	0.472	0.823	0.753	0.723	0.668	0.504	0.959	0.576	0.739	0.503	0.878
RHPFFFAPELL [ALB_Y174_Y174F_YF]	1.05	1.44	1.34	0.771	0.859	0.529	1.64	1.02	0.619	1.64	0.947	1.72	0.727	0.842	0.932	1.15
RHTRSYDFMEG [FGF7_Y56_YF]	1.92	1.2	0.944	0.823	0.857	0.794	0.848	1.3	0.591	0.726	0.293	1.19	1.13	0.792	0.82	0.852
RHTRSYDYMEG [FGF7_Y56]	3.83	1.06	1.33	0.561	0.716	0.533	0.609	0.552	0.7	0.529	0.534	0.958	0.628	0.92	0.389	0.513
RIFDFYSARKA [STOX1_Y858_YF]	0.529	0.538	0.75	0.849	1.33	0.72	1.21	1.04	0.82	0.979	1.1	1.59	0.644	0.847	0.645	0.729
RIVEIYSRRLQ [GCH1_Y175]	0.617	0.879	0.789	0.921	1.02	0.556	0.942	0.747	0.777	0.96	0.645	0.976	0.678	0.92	0.803	0.794

The next lines start with results.

SH2 binding enrichment [14]	SH2 binding enrichment [15]	SH2 binding enrichment [16]	Sequence	phosphorylation enrichment [1]	phosphorylation enrichment [2]	phosphorylation enrichment [3]	phosphorylation enrichment [4]	phosphorylation enrichment [5]	phosphorylation enrichment [6]	phosphorylation enrichment [7]	phosphorylation enrichment [8]	phosphorylation enrichment [9]	phosphorylation enrichment [10]	phosphorylation enrichment [11]	phosphorylation enrichment [12]	phosphorylation enrichment [13]
0.618	0.776	0.786	REVKAYGAGLL [TH_Y419_G414R]	0.532	0.419	0.853	0.559	0.55	0.411	0.817	0.487	0.649	0.411	0.405	0.363	0.53
0.691	0.625	0.707	REVPVYIGEDS [SYNM_Y460]	0.402	0.659	0.499	1.05	0.595	0.661	0.909	0.391	1.36	0.426	0.547	0.481	1.02
0.423	0.655	1.09	RGDTVYTVNRM [KBTBD13_Y404]	5.2	1.61	0.83	1.05	1.06	0.824	1.21	0.825	1.35	0.808	0.441	4.93	0.834
0.648	0.584	0.697	RGMVMYTSKDR [ZG16B_Y136]	0.493	0.614	0.413	0.941	0.428	0.523	0.645	0.623	0.857	0.528	0.597	0.533	0.744
0.975	1.42	1.25	RGNKEYKEEKR [LENG1_Y96_E97K]	0.399	0.425	0.303	0.462	0.688	0.606	0.735	0.369	0.861	0.392	0.423	0.398	0.511
0.435	0.353	1	RGRKVYLEDGF [PRIM2_Y201]	0.698	0.852	1.13	1.04	1.29	0.749	0.851	0.662	0.911	1.15	0.649	1.11	0.808
1.38	2.13	1.77	RHFTGYRIELQ [INSR_Y818]	0.604	0.401	0.544	1.01	0.805	0.531	0.661	0.472	1.37	0.546	0.56	0.525	0.989
